Laboratory results taken from the supplement of paper PMC10126150.
± gives the standard deviation of the averaged measurements.

Tested on: ATP
Assay: switch fluorescence ratio, 500 uM ATP over buffer (Cy3 cluster intensity, sum of 5 cycles each) (fold (ratio)); higher = stronger signal-on switching upon ATP binding; sequences stand for … in TCGTCGGCAGCGTCAGATGTGTATAAGAGACAGTTTTTTTTTTTTTTTTTTTTTTTTT…TC
Details: aptamer strand: ATP DNA aptamer (quencher-CACCTGGGGGAGTATTGCGGAGGAAGG + anchor), 100 nM annealed; ATP concentration: 500 uM
Method in brief: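 Cy3-labelled switching-strand clusters on a modified Illumina MiSeq flow-cell were annealed to 100 nM quencher-labelled ATP aptamer, imaged in selection buffer, then imaged after 15 min with 500 uM ATP at 22 °C. Five buffer/ATP cycles ran, with NaOH stripping and re-annealing between them. The fluorescence ratio is summed target-cycle over summed buffer-cycle Cy3 intensity per cluster, averaged per switch-domain sequence. Clusters outside 100-1000 RFU were excluded.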
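Also: ATP exposure 15 min at 22 °C before imaging.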

Sequence | switch fluorescence ratio
TTCGTTTGCA | 1.38 ± 0.64
TTCTACAGTA | 1.036 ± 0.0059
TTCTACGGTC | 1.01 ± 0.03
TTCTAGGGGG | 1.02 ± 0.056
TTCTAGGTCT | 1.02 ± 0.037
TTCTAGTAA | 0.998 ± 0.021
TTCTATATTG | 0.996 ± 0.023
TTCTATGGCA | 0.984 ± 0.043
TTCTATTACC | 1.01 ± 0.032
TTCTATTTCG | 1 ± 0.019
TTCTCAGAGG | 1.01 ± 0.029
TTCTCAGCAA | 2.43 ± 0.64
TTCTCATTTT | 1.01 ± 0.029
TTCTCTATGT | 1.01 ± 0.035
TTCTCTTTTT | 1.02 ± 0.036
TTCTGAGCTT | 1.07 ± 0.025
TTCTGCGGGG | 1.04 ± 0.046
TTCTGCTTAG | 2.04 ± 0.039
TTCTGGATGT | 0.956 ± 0.023
TTCTGGTTGT | 0.987 ± 0.046
TTCTGGTTTG | 0.975 ± 0.043
TTCTGGTTTT | 0.9727 ± 0.0026
TTCTGTGGGA | 1.002 ± 0.006
TTCTGTGGGT | 0.955 ± 0.057
TTCTGTTAAC | 1.01 ± 0.025

Sequence | switch fluorescence ratio
TTCTTAACAT | 1.054 ± 0.01
TTCTTACTTT | 1.48 ± 0.64
TTCTTATGAT | 0.9721 ± 0.0011
TTCTTCACGG | 1.04 ± 0.035
TTCTTCGGAT | 1.09 ± 0.11
TTCTTTCGCG | 0.9467 ± 0.0023
TTCTTTTTCG | 0.973 ± 0.056
TTCTTTTTGA | 1.43 ± 0.59
TTCTTTTTTT | 1.01 ± 0.032
TTGAAAATGT | 0.96 ± 0.0076
TTGAAAGGTG | 1.29 ± 0.24
TTGAAAGTG | 0.9785 ± 0.0043
TTGAAATAG | 0.9957 ± 0.0097
TTGAAATAGG | 1.03 ± 0.011
TTGAAATAGT | 1.01 ± 0.024
TTGAAATTAA | 1.01 ± 0.025
TTGAAATTTT | 1.001 ± 0.0077
TTGAACGTGT | 0.994 ± 0.042
TTGAAGGCGG | 1.02 ± 0.024
TTGAAGGGTG | 1.05 ± 0.11
TTGAAGGTGG | 1.08 ± 0.12
TTGAATGGTC | 0.979 ± 0.081
TTGAATTAGA | 0.965 ± 0.025
TTGAATTTAG | 0.986 ± 0.015
TTGAATTTGA | 1 ± 0.028

Sequence | switch fluorescence ratio
TTGACACTGG | 1.04 ± 0.02
TTGACAGTAA | 1.08 ± 0.014
TTGACATCCC | 1.07 ± 0.032
TTGACGAGGT | 1.07 ± 0.078
TTGACGATGA | 1.04 ± 0.025
TTGACGCGTG | 0.982 ± 0.023
TTGACGGTGA | 1.06 ± 0.033
TTGACTAAGG | 1.01 ± 0.044
TTGACTATCG | 1 ± 0.076
TTGACTTGTT | 1.02 ± 0.068
TTGACTTTGG | 0.959 ± 0.02
TTGAGAAAGG | 1.02 ± 0.025
TTGAGAAAGT | 1.47 ± 0.68
TTGAGAAGTT | 1.01 ± 0.021
TTGAGAGGAT | 0.972 ± 0.021
TTGAGAGTCT | 1.01 ± 0.18
TTGAGATACG | 1.001 ± 0.0057
TTGAGATCCT | 1.027 ± 0.0084
TTGAGCCGGT | 1 ± 0.045
TTGAGCGGGG | 0.9876 ± 0.005
TTGAGGACAG | 1.02 ± 0.025
TTGAGGATAG | 0.987 ± 0.021
TTGAGGCCCG | 0.9375 ± 0.0031
TTGAGGGAGA | 1.02 ± 0.058
TTGAGGGCCT | 0.979 ± 0.021

Sequence | switch fluorescence ratio
TTGAGGGGGA | 1.01 ± 0.014
TTGAGGGGTG | 0.996 ± 0.037
TTGAGGGTAT | 0.998 ± 0.023
TTGAGGTTAT | 1.02 ± 0.061
TTGAGGTTGG | 1 ± 0.026
TTGAGTCAAT | 1.044 ± 0.0078
TTGAGTGGGA | 0.989 ± 0.02
TTGAGTGGGC | 0.979 ± 0.031
TTGAGTTGGG | 0.973 ± 0.041
TTGAGTTTAA | 1.003 ± 0.0065
TTGATAAAAG | 1.03 ± 0.08
TTGATAATAG | 1 ± 0.024
TTGATAGACG | 1.07 ± 0.042
TTGATAGTCG | 0.969 ± 0.024
TTGATATCAT | 0.97 ± 0.049
TTGATATGAC | 1.014 ± 0.0094
TTGATCCAGC | 0.9958 ± 0.0068
TTGATCGGGC | 1.03 ± 0.052
TTGATGAACA | 1 ± 0.024
TTGATGACGG | 0.9872 ± 0.0016
TTGATGCTAT | 1.32 ± 0.43
TTGATGGTGG | 0.987 ± 0.056
TTGATGTTCG | 0.976 ± 0.015
TTGATTAGTT | 0.982 ± 0.036
TTGATTATTA | 1.02 ± 0.045

Sequence | switch fluorescence ratio
TTGATTCTGA | 0.992 ± 0.034
TTGATTGAGG | 1 ± 0.017
TTGATTGGAT | 1 ± 0.014
TTGATTGGGC | 0.989 ± 0.025
TTGATTGTTT | 0.987 ± 0.016
TTGATTTACT | 0.993 ± 0.03
TTGATTTGTG | 0.997 ± 0.012
TTGATTTTAG | 1 ± 0.031
TTGCAATTTA | 1.06 ± 0.033
TTGCAGGGGT | 1.14 ± 0.25
TTGCAGGGTG | 1.17 ± 0.035
TTGCATGGGT | 1.01 ± 0.039
TTGCCAGGGA | 0.995 ± 0.014
TTGCCATCCT | 0.98 ± 0.042
TTGCGAGGTG | 1.039 ± 0.0055
TTGCGATATT | 1.27 ± 0.36
TTGCGGCTTG | 0.9923 ± 0.0088
TTGCGGTAGC | 1 ± 0.016
TTGCGTATGA | 1.04 ± 0.063
TTGCGTGCCG | 0.98 ± 0.11
TTGCGTGCTT | 1.01 ± 0.027
TTGCGTTTTT | 1 ± 0.024
TTGCTACATA | 1.07 ± 0.011
TTGCTATAGA | 1.01 ± 0.017
TTGCTATATT | 1.01 ± 0.032

Sequence | switch fluorescence ratio
TTGCTATTTC | 1 ± 0.058
TTGCTCTGGA | 1.02 ± 0.015
TTGCTGAGGA | 0.962 ± 0.015
TTGCTGTGTG | 1.011 ± 0.0042
TTGCTTTAGA | 0.974 ± 0.012
TTGCTTTTGG | 1.04 ± 0.11
TTGGAAATTA | 1.036 ± 0.0082
TTGGAACATA | 0.986 ± 0.03
TTGGAAGGGC | 1.012 ± 0.0063
TTGGACGCCG | 1.07 ± 0.041
TTGGAGAAA | 1.27 ± 0.36
TTGGAGATTT | 1.02 ± 0.022
TTGGAGGAGA | 1.029 ± 0.005
TTGGAGGGGA | 1.01 ± 0.018
TTGGATAGAG | 0.996 ± 0.013
TTGGATAGGT | 0.981 ± 0.027
TTGGATATGT | 0.9573 ± 0.0047
TTGGATGGGA | 1 ± 0.034
TTGGATTAAC | 1.01 ± 0.029
TTGGATTTGG | 1.02 ± 0.051
TTGGATTTTT | 0.992 ± 0.041
TTGGCAAAGG | 1.1 ± 0.19
TTGGCAACTT | 1.03 ± 0.03
TTGGCAGATT | 1.004 ± 0.0061
TTGGCATAGT | 0.989 ± 0.031

Sequence | switch fluorescence ratio
TTGGCATCCT | 1.0176 ± 0.00051
TTGGCATTTG | 1.02 ± 0.064
TTGGCCACCG | 1.08 ± 0.096
TTGGCCCGGG | 1.01 ± 0.059
TTGGCCTTTT | 1.09 ± 0.12
TTGGCGAGGA | 1.003 ± 0.0024
TTGGCGCTTG | 1.02 ± 0.025
TTGGCTCTGG | 0.987 ± 0.02
TTGGCTCTTT | 1.01 ± 0.02
TTGGCTTAG | 0.999 ± 0.014
TTGGCTTGGG | 1.01 ± 0.043
TTGGCTTTTT | 1.01 ± 0.015
TTGGGAAATT | 1.02 ± 0.04
TTGGGAACAT | 1 ± 0.016
TTGGGAAGGC | 0.972 ± 0.035
TTGGGAATAA | 1.02 ± 0.0046
TTGGGAATTT | 0.975 ± 0.019
TTGGGAGAAA | 0.9804 ± 0.0092
TTGGGAGTTA | 0.99379 ± 0.00026
TTGGGATGAG | 1 ± 0.019
TTGGGATGTT | 0.9904 ± 0.009
TTGGGATTGG | 0.968 ± 0.018
TTGGGCAACT | 1.06 ± 0.07
TTGGGCACTG | 0.974 ± 0.013
TTGGGCACTT | 0.997 ± 0.068

Sequence | switch fluorescence ratio
TTGGGCATGG | 1.02 ± 0.048
TTGGGCATTG | 1.01 ± 0.017
TTGGGCCCGC | 1.007 ± 0.0012
TTGGGCCGTT | 1.01 ± 0.035
TTGGGCCTCT | 1.01 ± 0.029
TTGGGCGACG | 1.036 ± 0.0032
TTGGGCGCGG | 1 ± 0.031
TTGGGCTGGG | 1.01 ± 0.026
TTGGGCTTTC | 1.04 ± 0.03
TTGGGGAACA | 1.014 ± 0.008
TTGGGGAACG | 1.41 ± 0.62
TTGGGGAAGA | 1.02 ± 0.029
TTGGGGATGC | 1.33 ± 0.23
TTGGGGCCCA | 1 ± 0.022
TTGGGGCCGG | 1.003 ± 0.0095
TTGGGGGATG | 0.985 ± 0.0088
TTGGGGGCAA | 1.57 ± 0.84
TTGGGGGGAG | 0.99 ± 0.027
TTGGGGGGTG | 1.04 ± 0.14
TTGGGGTAAT | 1.01 ± 0.022
TTGGGGTACA | 0.9895 ± 0.0051
TTGGGGTAGC | 1.01 ± 0.036
TTGGGGTATT | 1.01 ± 0.025
TTGGGGTGAG | 0.981 ± 0.022
TTGGGGTGCA | 0.99 ± 0.018
